# Reference: publication PMC13323077, “Hydrophobic tuning with non-canonical amino acids in a copper metalloenzyme” (Nature Chemistry, 2026)
# What was measured:
# [1] = substrate: CCn1c(=NN=c2sc3cc(S(=O)(=O)O)ccc3n2CC)sc2cc(S(=O)(=O)O)ccc21; test: purified protein; assay type: biochemical, Streptomyces coelicolor; settings: pH 4.0, 25 °C, 20 mM Britton-Robinson buffer
# [2] = substrate: CC(=O)N1c2ccc(O)cc2Oc2cc(O)ccc21; test: purified protein; assay type: biochemical, Streptomyces coelicolor; settings: pH 7.0, 25 °C, 20 mM Britton-Robinson buffer
# [3] = 500 µM CuCl2, air O2, 1 µM enzyme
# [4] = 1 mM CuCl2, air O2, 1,000 nM enzyme
protein,measurement,setting,value
"ScSLAC (Streptomyces coelicolor A3(2)) (protein, N-terminal signal peptide (residues 2-30) removed, C-terminal His6, pET28, expressed in E. coli B-95deltaAdeltafabR, Cu-loaded; homotrimer (known biology)) APAAKGITARTAPAGGEVRHLKMYAEKLADGQMGYGFEKGKASVPGPLIEVNEGDTLHIEFTNTMDVRASLHVHGLDYEISSDGTAMNKSDVEPGGTRTYTWRTHKPGRRDDGTWRPGSAGYWHYHDHVVGTEHGTGGIRNGLYGPVIVRRKGDVLPDATHTIVFNDMTINNRKPHTGPDFEATVGDRVEIVMITHGEYYHTFHMHGHRWADNRTGILTGPDDPSRVIDNKITGPADSFGFQIIAGEGVGAGAWMYHCHVQSHSDMGMVGLFLVKKPDGTIPGYEPHEHGGATAKSGESGEPTGGAAAHEHEH",Km,"[1]; 1 mM CuCl2, air O2, 200 nM enzyme",0.96(5) mM
same,Km,[2]; [3],0.25(3) mM
same,kcat,[2]; [3],0.045(4) min-1
"ScSLAC (Streptomyces coelicolor A3(2); M298L) (protein, N-terminal signal peptide (residues 2-30) removed, C-terminal His6, pET28, expressed in E. coli B-95deltaAdeltafabR, Cu-loaded; homotrimer (known biology)) APAAKGITARTAPAGGEVRHLKMYAEKLADGQMGYGFEKGKASVPGPLIEVNEGDTLHIEFTNTMDVRASLHVHGLDYEISSDGTAMNKSDVEPGGTRTYTWRTHKPGRRDDGTWRPGSAGYWHYHDHVVGTEHGTGGIRNGLYGPVIVRRKGDVLPDATHTIVFNDMTINNRKPHTGPDFEATVGDRVEIVMITHGEYYHTFHMHGHRWADNRTGILTGPDDPSRVIDNKITGPADSFGFQIIAGEGVGAGAWMYHCHVQSHSDMGLVGLFLVKKPDGTIPGYEPHEHGGATAKSGESGEPTGGAAAHEHEH",Km,[1]; [4],1.19(7) mM
same,kcat,[1]; [4],0.32(1) s-1
"ScSLAC (Streptomyces coelicolor A3(2); M298F) (protein, N-terminal signal peptide (residues 2-30) removed, C-terminal His6, pET28, expressed in E. coli B-95deltaAdeltafabR, Cu-loaded; homotrimer (known biology)) APAAKGITARTAPAGGEVRHLKMYAEKLADGQMGYGFEKGKASVPGPLIEVNEGDTLHIEFTNTMDVRASLHVHGLDYEISSDGTAMNKSDVEPGGTRTYTWRTHKPGRRDDGTWRPGSAGYWHYHDHVVGTEHGTGGIRNGLYGPVIVRRKGDVLPDATHTIVFNDMTINNRKPHTGPDFEATVGDRVEIVMITHGEYYHTFHMHGHRWADNRTGILTGPDDPSRVIDNKITGPADSFGFQIIAGEGVGAGAWMYHCHVQSHSDMGFVGLFLVKKPDGTIPGYEPHEHGGATAKSGESGEPTGGAAAHEHEH",Km,[1]; [4],0.4(1) mM
same,kcat,[1]; [4],0.19(3) s-1
"ScSLAC (Streptomyces coelicolor A3(2); M296W/S292P) (protein, N-terminal signal peptide (residues 2-30) removed, C-terminal His6, pET28, expressed in E. coli B-95deltaAdeltafabR, Cu-loaded; homotrimer (known biology)) APAAKGITARTAPAGGEVRHLKMYAEKLADGQMGYGFEKGKASVPGPLIEVNEGDTLHIEFTNTMDVRASLHVHGLDYEISSDGTAMNKSDVEPGGTRTYTWRTHKPGRRDDGTWRPGSAGYWHYHDHVVGTEHGTGGIRNGLYGPVIVRRKGDVLPDATHTIVFNDMTINNRKPHTGPDFEATVGDRVEIVMITHGEYYHTFHMHGHRWADNRTGILTGPDDPSRVIDNKITGPADSFGFQIIAGEGVGAGAWMYHCHVQPHSDWGMVGLFLVKKPDGTIPGYEPHEHGGATAKSGESGEPTGGAAAHEHEH",Km,"[2]; 500 µM CuCl2, air O2",0.144(5) mM
same,kcat,"[2]; 500 µM CuCl2, air O2",0.405(4) min-1
